# Data published in patent US20210221880A1 (CAS LAMVAC GUANGZHOU BIOMEDICAL TECHNOLOGY, published 2021).
# T1: rVAR2 recombinant protein with a Strep-tag (prokaryotically expressed and purified) (Plasmodium falciparum)
# T1 construct: Expressed in E. coli, about 74 kDa; also called prokaryotically expressed and purified rVAR2 protein; strep-tagged rVAR2 recombinant protein
# T1 chain: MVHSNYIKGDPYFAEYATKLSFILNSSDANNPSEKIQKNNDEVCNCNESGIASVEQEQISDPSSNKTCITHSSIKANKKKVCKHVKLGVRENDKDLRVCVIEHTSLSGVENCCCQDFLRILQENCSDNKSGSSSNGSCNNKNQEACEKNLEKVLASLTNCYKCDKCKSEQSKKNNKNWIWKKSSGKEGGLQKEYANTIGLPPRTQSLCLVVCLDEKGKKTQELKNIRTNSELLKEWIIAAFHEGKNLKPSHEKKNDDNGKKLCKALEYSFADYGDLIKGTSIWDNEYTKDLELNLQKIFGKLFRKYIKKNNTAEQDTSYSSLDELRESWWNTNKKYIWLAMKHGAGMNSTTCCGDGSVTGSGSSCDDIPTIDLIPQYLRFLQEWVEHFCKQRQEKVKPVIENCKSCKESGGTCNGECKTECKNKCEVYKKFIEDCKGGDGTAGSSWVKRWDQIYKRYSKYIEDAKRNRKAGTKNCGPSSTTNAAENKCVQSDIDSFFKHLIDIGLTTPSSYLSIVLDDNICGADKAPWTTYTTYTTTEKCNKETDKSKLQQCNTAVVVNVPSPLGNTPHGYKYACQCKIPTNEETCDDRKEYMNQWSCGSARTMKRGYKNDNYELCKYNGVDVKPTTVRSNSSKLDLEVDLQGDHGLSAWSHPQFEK
# T2: rVAR2 recombinant protein with the 3xFLAG-tag (eukaryotically expressed and purified) (Plasmodium falciparum, Possible post-translational modification (runs at about 115 kDa against 76 kDa predicted); not carried by the letters.)
# T2 construct: Expressed in HEK293 or HEK293T cells; Predicted about 76 kDa, runs at about 115 kDa (possible post-translational modification); also called eukaryotically expressed and purified rVAR2 protein
# T2 chain: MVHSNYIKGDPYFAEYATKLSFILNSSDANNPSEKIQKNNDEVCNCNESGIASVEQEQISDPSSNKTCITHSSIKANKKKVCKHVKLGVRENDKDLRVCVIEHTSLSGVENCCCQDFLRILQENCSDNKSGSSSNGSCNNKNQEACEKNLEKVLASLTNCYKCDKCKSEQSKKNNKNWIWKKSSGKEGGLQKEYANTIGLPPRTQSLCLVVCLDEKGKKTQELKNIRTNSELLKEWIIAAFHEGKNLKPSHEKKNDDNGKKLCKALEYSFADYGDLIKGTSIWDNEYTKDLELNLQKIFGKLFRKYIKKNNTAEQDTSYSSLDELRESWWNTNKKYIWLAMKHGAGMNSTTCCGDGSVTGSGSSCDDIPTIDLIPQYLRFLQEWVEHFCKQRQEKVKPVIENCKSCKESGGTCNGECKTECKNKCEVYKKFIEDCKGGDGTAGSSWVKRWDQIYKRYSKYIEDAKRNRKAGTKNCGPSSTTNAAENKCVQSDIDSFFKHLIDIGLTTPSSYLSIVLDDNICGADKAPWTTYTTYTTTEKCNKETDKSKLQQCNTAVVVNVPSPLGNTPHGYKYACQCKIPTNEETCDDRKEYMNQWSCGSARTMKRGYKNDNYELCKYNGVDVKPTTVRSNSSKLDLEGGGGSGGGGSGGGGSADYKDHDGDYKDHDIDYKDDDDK
# T3: DBL2X polypeptide with Strep-tag (Plasmodium falciparum)
# T3 construct: Expressed in E. coli, predicted 40 kDa; also called DBL2X antigen peptide
# T3 chain: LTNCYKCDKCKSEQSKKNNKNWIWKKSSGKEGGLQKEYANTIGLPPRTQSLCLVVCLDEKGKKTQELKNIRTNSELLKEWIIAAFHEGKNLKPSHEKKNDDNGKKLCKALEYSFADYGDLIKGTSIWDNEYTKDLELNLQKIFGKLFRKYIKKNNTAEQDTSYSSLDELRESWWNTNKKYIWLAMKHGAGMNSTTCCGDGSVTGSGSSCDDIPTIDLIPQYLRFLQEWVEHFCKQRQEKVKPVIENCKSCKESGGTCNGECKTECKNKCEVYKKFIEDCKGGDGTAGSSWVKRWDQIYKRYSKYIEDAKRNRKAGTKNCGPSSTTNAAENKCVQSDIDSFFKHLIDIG
# T4: ID1 polypeptide with Strep-tag (Plasmodium falciparum)
# T4 construct: Expressed in E. coli, predicted 17 kDa; also called ID1 antigen peptide
# T4 chain: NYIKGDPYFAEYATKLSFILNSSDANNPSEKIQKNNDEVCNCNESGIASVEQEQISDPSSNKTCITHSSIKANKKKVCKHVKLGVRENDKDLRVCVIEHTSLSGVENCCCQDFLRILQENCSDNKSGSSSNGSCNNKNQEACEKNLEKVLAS
# T5: ID2a polypeptide with Strep-tag (Plasmodium falciparum)
# T5 construct: Expressed in E. coli, predicted about 15 kDa; also called ID2a antigen peptide
# T5 chain: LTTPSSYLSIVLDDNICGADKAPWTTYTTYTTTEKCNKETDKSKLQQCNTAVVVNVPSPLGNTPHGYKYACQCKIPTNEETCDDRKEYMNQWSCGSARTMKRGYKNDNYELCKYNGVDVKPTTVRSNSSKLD
# B1: anti-rVAR2 monoclonal antibody 5H4 (antibody, V domains shown)
# VH: EVKLVESGGGLVKPGGSLKLSCAASGFTFSNYAMSWVRQSPERRLEWVAEISITGRYTYYPDTVTGRFTISRDNAKNTLYLEMSSLRSEDTAMYYCTREGYDYAPSWFAYWGQGTLVTVSA
# VL: DVVMTQTPLSLPVSLGDQASISCRSGQTLVHRNGITYLEWYLQKPGQSPKLLIYKVSNRFSGVPDRFSGSGSGTDFTLKISRVEAEDLGIYYCFQGSHVPRTFGGGTKLEIK
# notes: Murine IgG from a mouse B cell hybridoma, purified from hybridoma supernatant; isotype and constant regions are not; also called murine monoclonal antibody 5H4
# How the values were obtained:
# [1] = molecular target: T1, rVAR2 recombinant protein with a …; assay: Western blot, 5H4 as primary antibody
# [2] = molecular target: T2, rVAR2 recombinant protein with the …; assay: Western blot, 5H4 as primary antibody
# [3] = molecular target: T3, DBL2X polypeptide with Strep-tag; assay: antigen-specific ELISA, OD450
# [4] = molecular target: T4, ID1 polypeptide with Strep-tag; assay: antigen-specific ELISA, OD450
# [5] = molecular target: T5, ID2a polypeptide with Strep-tag; assay: antigen-specific ELISA, antigen coated at 1 µg/ml
binder,measurement,setting,value
B1,binding result,[1],binds
same,binding result,[2],binds
same,binding result,[3],no binding (tested: antigen coated at 1 µg/ml)
same,binding result,[4],no binding (tested: antigen coated at 1 µg/ml)
same,binding result,[5],binds
